Laboratory results from patent publication EP3988566A1 (AC Immune SA, dated 2022).

Molecular target: Amyloid Beta (antigen of the Amyloid Beta ELISA) (UniProt P05067 672-713, limits assumed)
Assay: Amyloid Beta ELISA, purified antibodies

Amyloid Beta (antigen of the Amyloid Beta ELISA), sequence (P05067 672-713 limits assumed): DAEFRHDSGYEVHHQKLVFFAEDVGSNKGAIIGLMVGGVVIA

B1: humanized antibody C2 HuVH2/HuVK3 (antibody, V domains shown)
VH: EVQLVESGGGLVQPGGSLRLSCAASGFTFSSYGMSWVRQAPGKGLEWVASINSNGGSTYYPDSVKGRFTISRDNAKNSLYLQMNSLRAEDTAVYYCASGDYWGQGTTVTVSS
VL: DIVMTQSPLSLPVTPGEPASISCRSSQSLVYSNGDTYLHWYLQKPGQSPKLLIYKVSNRFSGVPDRFSGSGSGTDFTLKISRVEAEDVGVYYCSQSTHVPWTFGQGTKVEIKR
For B1, the “fold reduction of binding activity against the chimeric control antibody C2 ChVHAF/ChVK” value was ~2 fold.
